Reference: publication PMC8523171, “The cooperative binding of TDP-43 to GU-rich RNA repeats antagonizes TDP-43 aggregation”

Experiments:
TDP-43 RRM1-2 (human) = TDP-43 RRM1-2 (human) (UniProt Q13148); experiment: ITC; settings: apparent, one set of sites model, ITC: 15 mM phosphate pH 6.8, 25 mM KCl, 1 mM TCEP, 25 C, NMR: same buffer, 298 K (SEA-HSQC 310 K), EMSA: 20 mM HEPES pH 7.6, 25 mM KCl, 2 mM MgCl2 …
TDP-43 RRM1 [1] = molecular target: T1, TDP-43 RRM1 (human, UniProt Q13148 101-192); experiment: ITC; ITC: 15 mM phosphate pH 6.8, 25 mM KCl, 1 mM TCEP, 25 C; NMR: same buffer, 298 K (SEA-HSQC 310 K); EMSA: 20 mM HEPES pH 7.6, 25 mM KCl, 1 mM TCEP, 2 mM MgCl2, room temperature, 10 pmol DNA in 10 uL; settings: protein: recombinant; tags: His6 cleaved by TEV; chain copies: 2; single strand
TDP-43 RRM1-2 [2] = molecular target: T2, TDP-43 RRM1-2 (human, UniProt Q13148 101-277); experiment: as above; settings: protein: recombinant; tags: His6 cleaved by TEV; residual N-terminal GSH (180 aa); single strand
TDP-43 RRM1 [3] = molecular target: T1, TDP-43 RRM1; experiment: ITC; Kd1; ITC: 15 mM phosphate pH 6.8, 25 mM KCl, 1 mM TCEP, 25 C; NMR: same buffer, 298 K (SEA-HSQC 310 K); EMSA: 20 mM HEPES pH 7.6, 25 mM KCl, 1 mM TCEP, 2 mM MgCl2, room temperature, 10 pmol DNA in 10 uL; settings: protein: recombinant; tags: His6 cleaved by TEV; chain copies: 2; single strand
TDP-43 RRM2 = TDP-43 RRM2 (human, UniProt Q13148 176-277); experiment: ITC; two protein copies; Kd values not in material; ITC: 15 mM phosphate pH 6.8, 25 mM KCl, 1 mM TCEP, 25 C; NMR: same buffer, 298 K (SEA-HSQC 310 K); EMSA: 20 mM HEPES pH 7.6, 25 mM KCl, 1 mM TCEP, 2 mM MgCl2, room temperature, 10 pmol DNA in 10 uL; settings: protein: recombinant; tags: His6 cleaved by TEV; chain copies: 2; single strand
TDP-43 RRM1-2 [4] = molecular target: T2, TDP-43 RRM1-2; experiment: ITC; Kd1, first monomer; ITC: 15 mM phosphate pH 6.8, 25 mM KCl, 1 mM TCEP, 25 C; NMR: same buffer, 298 K (SEA-HSQC 310 K); EMSA: 20 mM HEPES pH 7.6, 25 mM KCl, 1 mM TCEP, 2 mM MgCl2, room temperature, 10 pmol DNA in 10 uL; settings: protein: recombinant; tags: His6 cleaved by TEV; residual N-terminal GSH (180 aa); single strand
TDP-43 RRM1-2 [5] = molecular target: T2, TDP-43 RRM1-2; experiment: NMR; single RRM1-2 bound; ITC: 15 mM phosphate pH 6.8, 25 mM KCl, 1 mM TCEP, 25 C; NMR: same buffer, 298 K (SEA-HSQC 310 K); EMSA: 20 mM HEPES pH 7.6, 25 mM KCl, 1 mM TCEP, 2 mM MgCl2, room temperature, 10 pmol DNA in 10 uL; settings: protein: recombinant; tags: His6 cleaved by TEV; residual N-terminal GSH (180 aa); single strand
TDP-43 RRM1-2 [6] = molecular target: T2, TDP-43 RRM1-2; experiment: NMR and SAXS; two RRM1-2 bound; ITC: 15 mM phosphate pH 6.8, 25 mM KCl, 1 mM TCEP, 25 C; NMR: same buffer, 298 K (SEA-HSQC 310 K); EMSA: 20 mM HEPES pH 7.6, 25 mM KCl, 1 mM TCEP, 2 mM MgCl2, room temperature, 10 pmol DNA in 10 uL; settings: protein: recombinant; tags: His6 cleaved by TEV; residual N-terminal GSH (180 aa); single strand
TDP-43 RRM1-2 [7] = molecular target: T2, TDP-43 RRM1-2; experiment: NMR; additional CSPs and peak broadening; ITC: 15 mM phosphate pH 6.8, 25 mM KCl, 1 mM TCEP, 25 C; NMR: same buffer, 298 K (SEA-HSQC 310 K); EMSA: 20 mM HEPES pH 7.6, 25 mM KCl, 1 mM TCEP, 2 mM MgCl2, room temperature, 10 pmol DNA in 10 uL; settings: protein: recombinant; tags: His6 cleaved by TEV; residual N-terminal GSH (180 aa); single strand
TDP-43 RRM1-2 [8] = molecular target: T2, TDP-43 RRM1-2; experiment: NMR and SAXS; same dimer interface as with (GU)12; ITC: 15 mM phosphate pH 6.8, 25 mM KCl, 1 mM TCEP, 25 C; NMR: same buffer, 298 K (SEA-HSQC 310 K); EMSA: 20 mM HEPES pH 7.6, 25 mM KCl, 1 mM TCEP, 2 mM MgCl2, room temperature, 10 pmol DNA in 10 uL; settings: protein: recombinant; tags: His6 cleaved by TEV; residual N-terminal GSH (180 aa); single strand

T2 sequence (Q13148 101-277): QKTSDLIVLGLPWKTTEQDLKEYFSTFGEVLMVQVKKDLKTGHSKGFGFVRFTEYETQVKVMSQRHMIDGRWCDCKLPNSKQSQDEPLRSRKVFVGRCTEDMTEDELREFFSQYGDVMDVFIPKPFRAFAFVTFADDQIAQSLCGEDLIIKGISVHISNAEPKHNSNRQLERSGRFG
T1 sequence (Q13148 101-192): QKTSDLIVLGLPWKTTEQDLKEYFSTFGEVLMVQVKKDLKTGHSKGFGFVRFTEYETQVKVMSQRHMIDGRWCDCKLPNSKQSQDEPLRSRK
Sequence of TDP-43 RRM1-2 (human) (Q13148 101-277): as the sequence (Q13148 101-277) above
Sequence of TDP-43 RRM2 (Q13148 176-277): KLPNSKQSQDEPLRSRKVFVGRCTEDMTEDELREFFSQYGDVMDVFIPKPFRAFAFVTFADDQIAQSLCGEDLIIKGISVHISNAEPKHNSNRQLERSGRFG

CLIP34nt (DNA) showed a Kd (TDP-43 RRM1-2 (human)) of 0.27 µM.

B1: (GT)3 (ssDNA)
DNA: GTGTGT
Molecule B1 has a Kd (TDP-43 RRM1 [1]) of 0.929 µM and a Kd (TDP-43 RRM1-2 [2]) of 2.2 µM.

B2: (GT)6 (ssDNA)
DNA: GTGTGTGTGTGT
For B2, the Kd (TDP-43 RRM1-2 [2]) was 0.0684 µM, the Kd (TDP-43 RRM1 [3]) was 0.0844 µM and the binding signal (TDP-43 RRM2) was 0.05 Kd1/Kd2 ratio.

B3: (GT)12 (ssDNA)
DNA: GTGTGTGTGTGTGTGTGTGTGTGT
With B3 the Kd (TDP-43 RRM1 [3]) was 2.3 µM and the Kd (TDP-43 RRM1-2 [4]) was 0.051 µM.

B4: (GU)6 (ssRNA)
RNA: GUGUGUGUGUGU
B4: binds (TDP-43 RRM1-2 [5]).

B5: (GU)12 (ssRNA)
RNA: GUGUGUGUGUGUGUGUGUGUGUGU
B5: binds (TDP-43 RRM1-2 [6]).

B6: (GU)24 (ssRNA)
RNA: GUGUGUGUGUGUGUGUGUGUGUGUGUGUGUGUGUGUGUGUGUGUGUGU
B6: binds (TDP-43 RRM1-2 [7]).

B7: AUG12-(GU)6 (ssRNA)
RNA: GUGUGAAUGAAUGUGUGUGUGUGU
B7: binds (TDP-43 RRM1-2 [8]).
